Test results taken from patent US20170247440A1 (Hoffmann-La Roche, published 2017).
Read-outs that look alike come from different tables or passages of the source.

B1: antibody 0117 (bispecific anti-VEGF/PDGF-B CrossMab antibody) (bispecific antibody, human IgG1, kappa, L234A L235A)
chain 1: DIQLTQSPSSLSASVGDRVTITCSASQDISNYLNWYQQKPGKAPKVLIYFTSSLHSGVPSRFSGSGSGTDFTLTISSLQPEDFATYYCQQYSTVPWTFGQGTKVEIKSSASTKGPSVFPLAPSSKSTSGGTAALGCLVKDYFPEPVTVSWNSGALTSGVHTFPAVLQSSGLYSLSSVVTVPSSSLGTQTYICNVNHKPSNTKVDKKVEPKSCDKTHTCPPCPAPEAAGGPSVFLFPPKPKDTLMASRTPEVTCVVVDVSHEDPEVKFNWYVDGVEVHNAKTKPREEQYNSTYRVVSVLTVLAQDWLNGKEYKCKVSNKALGAPIEKTISKAKGQPREPQVYTLPPCRDELTKNQVSLWCLVKGFYPSDIAVEWESNGQPENNYKTTPPVLDSDGSFFLYSKLTVDKSRWQQGNVFSCSVMHEALHNAYTQKSLSLSPGK
chain 2: not shown
chain 3: EVQLVESGGGLVQPGGSLRLSCAASGYDFTHYGMNWVRQAPGKGLEWVGWINTYTGEPTYAADFKRRFTFSLDTSKSTAYLQMNSLRAEDTAVYYCAKYPYYYGTSHWYFDVWGQGTLVTVSSASVAAPSVFIFPPSDEQLKSGTASVVCLLNNFYPREAKVQWKVDNALQSGNSQESVTEQDSKDSTYSLSSTLTLSKADYEKHKVYACEVTHQGLSSPVTKSFNRGEC
chain 4: not shown
notes: also called anti-PDGFB/VEGF antibody
B2: antibody 0086 (antibody, V domains shown)
VH: EVQLVESGGGLVQPGGSLRLSCAASGFTFSSYWMSWVRQAPEKGLEWVSTISDGGGLTYYADSVKGRFTISRDNAKNSLYLQMNSLRAEDTAVYYCAESGGYTDWLFGYWGQGTLVTVSS
VL: not shown
B3: antibody 0085 (antibody, V domains shown)
VH: B2 VH
VL: not shown
B4: mumAb (murine anti-human PDGF-B antibody) (antibody, V domains shown)
VH: QVQLQQSGAELMKPGASVKISCKATGYTFSSYWIEWVKQRPGHGLEWIGEILPGSGSTNYNEKFKVKATFTADTSSNTAYMQLSSLTSEDSAVYYCAQTTQDFDSWGQGTTLTVSS
VL: DIVLTQSPGSLAVSLGQRATISCRASESVDIYGYSFMHWYQQKPGQPPKLLIYRASNLESGIPARFSGSGSRTDFTLTINPVEADDVATYYCQQSNEDPRTFGGGTKLEIK
B5: antibody 0144 (bispecific anti-ANG2/PDGF-B CrossMab antibody) (bispecific antibody, human IgG1, kappa, L234A L235A)
heavy 1: SYVLTQPPSVSVAPGQTARITCGGNNIGSKSVHWYQQKPGQAPVLVVYDTSDRPSGIPERFSGSNSGNTATLTISRVEAGDEADYYCQVWDSSSDHWVFGGGTKLTVLSSASTKGPSVFPLAPSSKSTSGGTAALGCLVKDYFPEPVTVSWNSGALTSGVHTFPAVLQSSGLYSLSSVVTVPSSSLGTQTYICNVNHKPSNTKVDKKVEPKSCDKTHTCPPCPAPEAAGGPSVFLFPPKPKDTLMASRTPEVTCVVVDVSHEDPEVKFNWYVDGVEVHNAKTKPREEQYNSTYRVVSVLTVLAQDWLNGKEYKCKVSNKALGAPIEKTISKAKGQPREPQVYTLPPCRDELTKNQVSLWCLVKGFYPSDIAVEWESNGQPENNYKTTPPVLDSDGSFFLYSKLTVDKSRWQQGNVFSCSVMHEALHNAYTQKSLSLSPGK
heavy 2: not shown
light 1: not shown
light 2: not shown

Key:
human PDGF-BB [1] = target: T1, human PDGF-BB (human, UniProt P01127 82-190); experiment: cell-based or functional assay
human PDGF-BB [2] = target: T1, human PDGF-BB; experiment: cell-based or functional assay; remark: listed apart in the source
human PDGF-BB [3] = target: T1, human PDGF-BB; experiment: SPR, on immobilized human PDGF-BB (Example 32); parameters: t½: unit not given here
human PDGF-BB [4] = target: T1, human PDGF-BB; experiment: cell-based or functional assay; remark: listed apart in the source
human PDGF-BB [5] = target: T1, human PDGF-BB; experiment: cell-based or functional assay; remark: listed apart in the source
[6] = target: T2, human ANG2-RBD-mouse Fc-region fusion (human, UniProt O15123 275-496, limits assumed); experiment: cell-based or functional assay
T2 sequence (looked up): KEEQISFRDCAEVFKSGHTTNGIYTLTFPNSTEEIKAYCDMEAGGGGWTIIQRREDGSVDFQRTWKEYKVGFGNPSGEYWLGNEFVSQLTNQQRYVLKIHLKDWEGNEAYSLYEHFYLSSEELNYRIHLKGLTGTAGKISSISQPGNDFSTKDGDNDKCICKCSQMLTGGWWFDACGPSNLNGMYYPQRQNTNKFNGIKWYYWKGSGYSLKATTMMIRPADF

T1 sequence (P01127 82-190 limits assumed): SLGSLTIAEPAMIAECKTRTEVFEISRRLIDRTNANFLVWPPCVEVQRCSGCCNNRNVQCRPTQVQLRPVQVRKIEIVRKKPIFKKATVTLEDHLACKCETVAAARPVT

Binder	Balb-C3T3 Proliferation % neutralization (human PDGF-BB [4]) [%]	Balb-C3T3 Proliferation IC50 (human PDGF-BB [4]) [nM]	Pericytes Migration % neutralization (human PDGF-BB [4]) [%]	Pericytes Migration IC50 (human PDGF-BB [4]) [nM]	Pericytes Proliferation % neutralization (human PDGF-BB [4]) [%]	Pericytes Proliferation IC50 (human PDGF-BB [4]) [nM]	other results
B1	–	–	–	–	–	–	IC50 Proliferation 3T3 (human PDGF-BB [1]): 0.019 nM; IC50 Proliferation human pericytes (human PDGF-BB [1]): 0.016 nM; IC50 Migration-Inhibition human pericytes (human PDGF-BB [2]): 0.06 nM; IC50 Phospho-Inhibition human pericytes (human PDGF-BB [2]): 0.055 nM; Kd (human PDGF-BB [3]): 3 nM; koff (human PDGF-BB [3]): 0.000245 s⁻¹; kon (human PDGF-BB [3]): 76700 M⁻¹ s⁻¹; t½ (human PDGF-BB [3]): 47
B2	100	0.11	100	0.09	100	0.09	–
B3	100	0.06	90	0.15	100	0.11	–
B4	–	–	–	–	–	–	Balb-C3T3 Proliferation IC50 (human PDGF-BB [5]): 0.179 nM; Pericytes Migration IC50 (human PDGF-BB [5]): 0.08 nM; Pericytes Proliferation IC50 (human PDGF-BB [5]): 0.21 nM
B5	–	–	–	–	–	–	ANG2 specific pTie2-ELISA [6]: 6 fold
